7 molecules from patent publication US20260116958A1 (University of California, published 2026) can be followed below.

In assay [1] the target is T1, inactive BoNT/G (BoNT/Gi) (Clostridium botulinum, UniProt Q60393 1-1297).
T1 sequence: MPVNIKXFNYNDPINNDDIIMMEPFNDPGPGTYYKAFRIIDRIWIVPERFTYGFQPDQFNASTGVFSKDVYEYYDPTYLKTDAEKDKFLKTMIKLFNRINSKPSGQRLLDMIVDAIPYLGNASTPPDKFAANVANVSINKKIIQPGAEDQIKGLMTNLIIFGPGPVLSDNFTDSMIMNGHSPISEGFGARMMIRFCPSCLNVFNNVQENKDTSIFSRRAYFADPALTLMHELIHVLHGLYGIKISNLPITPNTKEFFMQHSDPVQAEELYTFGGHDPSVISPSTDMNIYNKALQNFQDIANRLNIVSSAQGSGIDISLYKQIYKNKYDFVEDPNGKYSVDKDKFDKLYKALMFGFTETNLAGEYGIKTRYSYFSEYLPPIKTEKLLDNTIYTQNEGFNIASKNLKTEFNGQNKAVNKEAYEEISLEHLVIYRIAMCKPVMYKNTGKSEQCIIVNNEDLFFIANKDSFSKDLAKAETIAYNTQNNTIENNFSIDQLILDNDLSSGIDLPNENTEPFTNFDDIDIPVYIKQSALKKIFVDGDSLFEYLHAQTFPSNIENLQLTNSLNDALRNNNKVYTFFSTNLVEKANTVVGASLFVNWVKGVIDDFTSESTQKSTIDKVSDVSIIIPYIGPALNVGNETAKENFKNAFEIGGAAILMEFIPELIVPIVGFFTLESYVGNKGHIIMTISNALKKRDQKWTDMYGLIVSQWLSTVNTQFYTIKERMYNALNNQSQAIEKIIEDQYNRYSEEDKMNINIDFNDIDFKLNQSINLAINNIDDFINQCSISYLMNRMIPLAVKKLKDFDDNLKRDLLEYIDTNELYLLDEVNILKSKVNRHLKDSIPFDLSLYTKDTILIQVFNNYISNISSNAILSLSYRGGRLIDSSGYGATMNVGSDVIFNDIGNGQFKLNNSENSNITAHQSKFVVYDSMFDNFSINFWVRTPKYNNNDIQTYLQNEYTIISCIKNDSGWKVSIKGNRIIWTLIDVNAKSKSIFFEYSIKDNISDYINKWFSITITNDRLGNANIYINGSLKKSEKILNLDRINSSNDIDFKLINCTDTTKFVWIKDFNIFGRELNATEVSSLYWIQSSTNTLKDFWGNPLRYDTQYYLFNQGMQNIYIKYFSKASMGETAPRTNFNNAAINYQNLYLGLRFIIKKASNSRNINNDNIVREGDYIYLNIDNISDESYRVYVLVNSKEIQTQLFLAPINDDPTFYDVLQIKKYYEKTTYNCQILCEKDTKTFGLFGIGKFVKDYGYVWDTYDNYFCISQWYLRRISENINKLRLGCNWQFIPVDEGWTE
Kind of assay: FACS, scFv on yeast. Background: A flow cytometer gives signals particle by particle.

Assay [2] addresses T1, inactive BoNT/G (BoNT/Gi). The assay can be described thus: scFv on yeast.
Assay [3] addresses inactive BoNT/G (BoNT/Gi) (Clostridium botulinum) (UniProt Q60393). The assay can be described thus: scFv on yeast surface.
For assay [4] the target is unchanged. The assay can be described thus: FACS, scFv on yeast.
The target is the same in assay [5]. Kind of assay: flow cytometry, scFv on yeast.
Assay [6] shares this target. Kind of assay: flow cytometry, scFv on yeast; against hu6G6 Wt.
Assay [7] shares this target. Kind of assay: scFv on yeast.
In assay [8] the target is T1, inactive BoNT/G (BoNT/Gi). The assay can be described thus: titration on yeast-displayed scFv, flow cytometry, fit y = m1 + m2*M0/(m0+m3).
Assay [9] addresses T1, inactive BoNT/G (BoNT/Gi). The assay is described as above. This is another data set of the same source.
The target of assay [10] is inactive BoNT/G (BoNT/Gi) (Clostridium botulinum) (UniProt Q60393). Kind of assay: flow cytometry, scFv on yeast. The source holds these as a separate data set.
For assay [11] the target is unchanged. Kind of assay: flow cytometry, scFv on yeast surface.
For assay [12], the target named is T1, inactive BoNT/G (BoNT/Gi). Kind of assay: scFv on yeast surface.

Positions count from the first letter of the chain named.

B1: hu6G11 scFv (scFv, V domains shown)
VH: QVQLVQSGAEVAKPGASVKMSCKASGYTFTSYWMHWVRQAPGQGLEWIGYINPSTGYTEYNQKFKDRATLTADKSTSTAYMELSSLRSEDTAVYYCARGYFSFAYWGQGTLVTVSS
VL: DIVMTQSPSSLSASVRDRVTITCQASHDIKNFLNWFQQKPGKAPKLLVYDASNLQVGVPSRFSASGYGTEFTLTISSLQPEDFATYYCQQANSFPRTFGQGTKVEIKR
The Kd is a measure of binding affinity in units of concentration. Take B1: binding in assay [1] was put at a Kd of 4.5 nM. Further, in [2], binding was characterised by a dissociation constant (Kd) of 4.57 nM and the “fold improvement in BoNT/Gi binding” value worked out at 25 fold.

B2: hu6G6.1 scFv (scFv)
scFv: QVQLVQSGAEVKKPGASVKLSCKASGFNIKDTYMHWVRQAPGQGLEWIGRIDPENGNTKYDPKFQGRATITAYKSINTAYLELSRLRSDDTAVYYCASGPNYYGTTWFAYWGQGTTVTVSSVDLKSGGSTSGSGKPGSGEGSSGSAREIVLTQSPSTLSASVGDRVTITCRASHGISNYLAWYQQKPGRAPKLLIYKASTLHIGVPSRFSGSGSGTEFALTISSLQPDDFSTYYCQQYNSYLPHTFGQGTRLEIK
With B2, the dissociation constant Kd is 1.15 nM in assay [3], 3.4 nM in assay [4] and 4.27 nM in assay [5]. The molecule also yielded an Improvement over WT in assay [6] of 5.5 fold.

B3: Hu6G6.2 scFv (scFv)
scFv: B2 scFv with T78R
With B3, the Kd in [4] and in assay [7] was 0.22 nM throughout.

B4: Hu6G7.2 scFv (scFv, V domains shown)
VH: QVQLVQSGAEVKKPGASVKVSCKASDYSFTDYNIYWVRQTPGQGLEWIGYIDPYNGGTSYNQKFKGRATLTVDKSISTAYMELSRLRSDDTAVYYCALYGYDPDYTEYWGQGTTLTVSS
VL: DIVLTQSPASMAVSPGQRVTITCSASSSVSYLHWFQQKPGQSPKLWIYSTSNLASGVPARFSGSGSGTDYTLTINPMEAEDTATYYCQQRSSYPYTFGQGTKLEIKR
As to B4, the dissociation constant Kd in [8] was determined as 3.93 nM; in [9] it was 1.42 nM; in assay [1], 1.42 nM.

B5: hu6G9 scFv (scFv)
scFv: QVQLVQSGAEVKKPGASVKMSCKASGYTFTSYWMHWVRQAPGQGLEWIGYINPSTGYTEYNQKFKDRATLTADKSTSTAYMELRSLRSDDTAVYYCARGGNYVDYWGQGTTLTVSSVDLKSGGSTSGSGKPGSGEGSSGSARDIQMTQSPSTLSASVGERVTITCRASQGISSWLAWYQQKPGKAPKRLIYAVSTLQTGVPSRFSGSGSGTDLTLTINSLQPEDFATYYCQHLNSYPLTFGGGTKVEIK
On to B5, for which the Kd in assay [10] worked out at 3.78 nM; in [5], 18.8 nM; in assay [11], 18.8 nM.

B6: Hu6G9.1 scFv (scFv)
scFv: B5 scFv with I48V, Q169H, G206D, H232D, T239S
B6 returned a dissociation constant Kd in [4] of 2.04 nM. The same molecule returned a fold improvement in affinity over hu6G9 WT in assay [5] of 9 fold. In assay [11], this molecule yielded a fold improvement over wild type hu6G9 of 9 fold.

B7: 6G6 scFv (scFv, V domains shown)
VH: EVQLQQSGAELVKPGASVKLSCTASGFNIKDTYMHWVKQRPEQGLEWIGRIDPANGNTKYDPKFQGKATITADTSSNTAYLQLSSLTSEDTAVYYCASGPNYYGTTWFAYWGQGTTVTVSS
VL: QIVLTQSPAILSASPGEKVTMTCRASSSVSYMHWYQQKPGSSPRLWIYRTSNLASGVPARFSGSGSGTSYSLTISSMEAEDAATYYCQQYHSYPRTFGGGTKLEIKR
In assay [12], B7 registered a Kd of 17.7 nM.
